The values that follow come from patent US20210063395.

For series [1], the system named is Q-gliadin (gliadin-BHQ-1 quencher conjugate). As to conditions: Gli4-FAM-PEG-rGO fluorescence at 520 nm; SE 0.02.
In series [2] the test system is gliadin. As to conditions: Gli4-FAM-PEG-rGO/Q-glia fluorescence at 520 nm; differs from Table 1 value.
The test system of series [3] is gliadin. As to conditions: Gli4-FAM-PEG-rGO/Q-glia fluorescence recovery at 520 nm, 100 nM aptamer; SE 0.1912; p66 gives about 0.11 ppm.
In series [4] the test system is lactose protein (as named; milk protein presumably). The settings on record: Gli4-FAM-PEG-rGO/Q-glia fluorescence at 520 nm; specificity control.

Read-outs that look alike come from different tables or passages of the source.

For “CCAGTCTCCCGTTTACCGCGCCTACACATGTCTGAATGCC [Gli4-FAM]”, the Kd came to 148 ppm in series [1], 0.11 ppm with gliadin [2], 0.76 ppm in the series with gliadin [3] and 13.2 ppm in series [4].
